Assay results taken from paper PMC8113518, “JRAB/MICAL-L2 undergoes liquid–liquid phase separation to form tubular recycling endosomes” (Communications Biology, 2021).

Target: T1, His-GFP-JRAB/MICAL-L2 (mouse, UniProt Q3TN34 1-1009)
T1 construct: JRAB/MICAL-L2, mouse; cDNA encoding JRAB/MICAL-L2 subcloned into pcDNAHisMax-GFP; The plasmid encodes the His6-tag followed by GFP, then the protein's cDNA; source: HEK293, transfected, purified (cOmplete resin, Superdex 200)
Experiment: recruitment to liposomes seen by confocal microscopy; purified His-GFP-JRAB/MICAL-L2 and His-mCherry-Rab8ADA (150 nM) mixed with PC:PS (7:3) liposomes in 20 mM HEPES-NaOH pH 7.5, 100 mM KCl, 1 mM DTT
Details: both partners purified

T1 sequence (Q3TN34 whole entry): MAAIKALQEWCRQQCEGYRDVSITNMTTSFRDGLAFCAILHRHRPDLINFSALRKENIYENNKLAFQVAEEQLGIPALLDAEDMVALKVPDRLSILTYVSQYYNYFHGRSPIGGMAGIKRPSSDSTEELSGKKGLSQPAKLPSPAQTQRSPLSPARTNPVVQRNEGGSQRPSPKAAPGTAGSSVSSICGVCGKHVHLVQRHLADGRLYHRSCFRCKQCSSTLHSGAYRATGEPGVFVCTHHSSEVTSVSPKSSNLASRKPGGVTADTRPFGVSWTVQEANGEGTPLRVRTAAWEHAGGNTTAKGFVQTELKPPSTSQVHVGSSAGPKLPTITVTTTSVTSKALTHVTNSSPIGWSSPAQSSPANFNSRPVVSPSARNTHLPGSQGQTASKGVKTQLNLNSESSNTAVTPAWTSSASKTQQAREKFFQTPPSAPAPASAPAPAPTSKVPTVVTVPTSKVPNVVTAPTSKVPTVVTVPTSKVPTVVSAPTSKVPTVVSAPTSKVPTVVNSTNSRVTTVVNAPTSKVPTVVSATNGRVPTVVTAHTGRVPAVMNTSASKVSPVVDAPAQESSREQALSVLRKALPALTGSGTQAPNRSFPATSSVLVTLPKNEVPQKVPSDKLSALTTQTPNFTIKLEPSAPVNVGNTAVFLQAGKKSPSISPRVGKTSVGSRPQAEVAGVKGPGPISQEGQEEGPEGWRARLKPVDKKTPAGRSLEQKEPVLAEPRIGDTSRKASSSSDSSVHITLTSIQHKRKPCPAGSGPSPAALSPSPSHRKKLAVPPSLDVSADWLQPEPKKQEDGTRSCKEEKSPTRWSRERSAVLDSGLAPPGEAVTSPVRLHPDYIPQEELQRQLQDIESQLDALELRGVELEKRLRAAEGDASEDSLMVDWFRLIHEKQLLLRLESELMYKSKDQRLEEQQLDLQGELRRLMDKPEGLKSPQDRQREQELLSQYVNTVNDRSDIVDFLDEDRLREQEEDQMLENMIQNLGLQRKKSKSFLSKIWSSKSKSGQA

B1: His-mCherry-Rab8ADA (natural protein, mouse, UniProt P55258 1-207, looked up)
chain: MAKTYDYLFKLLLIGDSGVGKTCVLFRFSEDAFNSTFISTIGIDFKIRTIELDGKRIKLQIWDTAGLERFRTITTAYYRGAMGIMLVYDITNEKSFDNIRNWIRNIEEHASADVEKMILGNKCDVNDKRQVSKERGEKLALDYGIKFMETSAKANINVENAFFTLARDIKAKMDKKLEGNSPQGSSHGVKITVEQQKRTSFFRCSLL
notes: Rab8A, mouse, dominant-active mutant Q67L; cDNA subcloned into pcDNAHisMax-mCherry; The plasmid encodes the His6-tag followed by mCherry, then the protein's cDNA; Purified from the membrane (pellet) fraction; source: HEK293, transfected, purified from the CHAPS-extracted pellet fraction (Talon resin)
**Q.** Does B1 bind?
**A.** binds
